# According to the supplement of paper PMC11908140:
# B1: library; numbered along this chain (parent)
# chain: MRKPRAAVGSGHRKQAASQEGRQKHAKNNSQAKPSACDGLARQPEEVVLQASVSSYHLFRDVAEVTAFRGSLLSWYDQEKRDLPWRRRAEDEMDLDRRAYAVWVSEVMLQQTQVATVINYYTGWMQKWPTLQDLASASLEEVNQLWAGLGYYSRGRRLQEGARKVVEELGGHMPRTAETLQQLLPGVGRYTAGAIASIAFGQATGVVDGNVARVLCRVRAIGADPSSTLVSQQLWGLAQQLVDPARPGDFNQAAMELGATVCTPQRPLCSQCPVESLCRARQRVEQEQLLASGSLSGSPDVEECAPNTGQCHLCLPPSEPWDQTLGVVNFPRKASRKPPREESSATCVLEQPGALGAQILLVQRPNSGLLAGLWEFPSVTWEPSEQLQRKALLQELQRWAGPLPATHLRHLGEVVHTFSHIKLTYQVYGLALEGQTPVTTVPPGARWLTQEEFHTAAVSTAMKKVFRVYQGQQPGTCMGSKRSQVSSPCSRKKPRMGQQVLDNFFRSHISTDAHSLNSAAQ
# Variants of: B1
# Experiment: 8OG:A repair function score (normalized; synonymous = 0, nonsense = -1) (normalized log-likelihood score); higher = more repair activity (WT-like)
# Settings: with 8OG:A DNA repair reporter (GFP) in HEK-293 MUTYH KO cells
# Procedure, shortened: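 After 72 h, viable mCherry+ cells were split into GFP+ (repair) and GFP− bins in three replicates per tile. These cells were MUTYH knockout HEK-293 cells holding lentiviral MUTYH cDNA NNN codon-scan libraries, kept in 10 pg/ml doxycycline and co-transfected with mCherry plus an 8OG:A GFP repair reporter. Sequencing of tile amplicons gave per-tile Rosace fitness scores, normalized into a repair function score anchored on synonymous and nonsense distributions. Synonymous medians were fixed at 0, nonsense at -1, and variants under 300 counts per million at the start were removed.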
# 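Further: cells sorted at 72 h after reporter transfection.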
row,Variant,8OG:A repair function score
1,MRKPRAAVGSGHRKQAASQEGRQKHAKNNSQAKPSACDGLARQPEEVVLQASVSSYHLFRDVAEVTAFRGSLLSWYDQEKRDLPWRRRAEDEMDLDRRAYAVWVSEVMLQQTQVATVINYYTGWMQKWPTLQDLASASLEEVNQLWAGLGYYSRGRRLQEGARKVVEELGGHMPRTAETLQQLLPGVGRYTAGAIASIAFGQATGVVDGNVARVLCRVRAIGADPSSTLVSQQLWGLAQQLVDPARPGDFNQAAMELGATVCTPQRPLCSQCPVESLCRARQRVEQEQLLASGSLSGSPDVEECAPNTGQCHLCLPPSEPWDQTLGVVNFPRKASRKPPREESSATCVLEQPGALGAQILLVQRPNSGLLAGLWEFPSVTWEPSEQLQRKALLQELQRWAGPLPATHLRHLGEVVHTFSHIKLTYQVYGLALEGQTPVTTVPPGARWLTQEEFHTAAVSTAMKKVFRVYQGQQPGTWMGSKRSQVSSPCSRKKPRMGQQVLDNFFRSHISTDAHSLNSAAQ [C477W],0.00839
2,MRKPRAAVGSGHRKQAASQEGRQKHAKNNSQAKPSACDGLARQPEEVVLQASVSSYHLFRDVAEVTAFRGSLLSWYDQEKRDLPWRRRAEDEMDLDRRAYAVWVSEVMLQQTQVATVINYYTGWMQKWPTLQDLASASLEEVNQLWAGLGYYSRGRRLQEGARKVVEELGGHMPRTAETLQQLLPGVGRYTAGAIASIAFGQATGVVDGNVARVLCRVRAIGADPSSTLVSQQLWGLAQQLVDPARPGDFNQAAMELGATVCTPQRPLCSQCPVESLCRARQRVEQEQLLASGSLSGSPDVEECAPNTGQCHLCLPPSEPWDQTLGVVNFPRKASRKPPREESSATCVLEQPGALGAQILLVQRPNSGLLAGLWEFPSVTWEPSEQLQRKALLQELQRWAGPLPATHLRHLGEVVHTFSHIKLTYQVYGLALEGQTPVTTVPPGARWLTQEEFHTAAVSTAMKKVFRVYQGQQPGTVMGSKRSQVSSPCSRKKPRMGQQVLDNFFRSHISTDAHSLNSAAQ [C477V],-0.0256
3,MRKPRAAVGSGHRKQAASQEGRQKHAKNNSQAKPSACDGLARQPEEVVLQASVSSYHLFRDVAEVTAFRGSLLSWYDQEKRDLPWRRRAEDEMDLDRRAYAVWVSEVMLQQTQVATVINYYTGWMQKWPTLQDLASASLEEVNQLWAGLGYYSRGRRLQEGARKVVEELGGHMPRTAETLQQLLPGVGRYTAGAIASIAFGQATGVVDGNVARVLCRVRAIGADPSSTLVSQQLWGLAQQLVDPARPGDFNQAAMELGATVCTPQRPLCSQCPVESLCRARQRVEQEQLLASGSLSGSPDVEECAPNTGQCHLCLPPSEPWDQTLGVVNFPRKASRKPPREESSATCVLEQPGALGAQILLVQRPNSGLLAGLWEFPSVTWEPSEQLQRKALLQELQRWAGPLPATHLRHLGEVVHTFSHIKLTYQVYGLALEGQTPVTTVPPGARWLTQEEFHTAAVSTAMKKVFRVYQGQQPGTTMGSKRSQVSSPCSRKKPRMGQQVLDNFFRSHISTDAHSLNSAAQ [C477T],0.019
4,MRKPRAAVGSGHRKQAASQEGRQKHAKNNSQAKPSACDGLARQPEEVVLQASVSSYHLFRDVAEVTAFRGSLLSWYDQEKRDLPWRRRAEDEMDLDRRAYAVWVSEVMLQQTQVATVINYYTGWMQKWPTLQDLASASLEEVNQLWAGLGYYSRGRRLQEGARKVVEELGGHMPRTAETLQQLLPGVGRYTAGAIASIAFGQATGVVDGNVARVLCRVRAIGADPSSTLVSQQLWGLAQQLVDPARPGDFNQAAMELGATVCTPQRPLCSQCPVESLCRARQRVEQEQLLASGSLSGSPDVEECAPNTGQCHLCLPPSEPWDQTLGVVNFPRKASRKPPREESSATCVLEQPGALGAQILLVQRPNSGLLAGLWEFPSVTWEPSEQLQRKALLQELQRWAGPLPATHLRHLGEVVHTFSHIKLTYQVYGLALEGQTPVTTVPPGARWLTQEEFHTAAVSTAMKKVFRVYQGQQPGTRMGSKRSQVSSPCSRKKPRMGQQVLDNFFRSHISTDAHSLNSAAQ [C477R],0.000623
5,MRKPRAAVGSGHRKQAASQEGRQKHAKNNSQAKPSACDGLARQPEEVVLQASVSSYHLFRDVAEVTAFRGSLLSWYDQEKRDLPWRRRAEDEMDLDRRAYAVWVSEVMLQQTQVATVINYYTGWMQKWPTLQDLASASLEEVNQLWAGLGYYSRGRRLQEGARKVVEELGGHMPRTAETLQQLLPGVGRYTAGAIASIAFGQATGVVDGNVARVLCRVRAIGADPSSTLVSQQLWGLAQQLVDPARPGDFNQAAMELGATVCTPQRPLCSQCPVESLCRARQRVEQEQLLASGSLSGSPDVEECAPNTGQCHLCLPPSEPWDQTLGVVNFPRKASRKPPREESSATCVLEQPGALGAQILLVQRPNSGLLAGLWEFPSVTWEPSEQLQRKALLQELQRWAGPLPATHLRHLGEVVHTFSHIKLTYQVYGLALEGQTPVTTVPPGARWLTQEEFHTAAVSTAMKKVFRVYQGQQPGTQMGSKRSQVSSPCSRKKPRMGQQVLDNFFRSHISTDAHSLNSAAQ [C477Q],0.0117
6,MRKPRAAVGSGHRKQAASQEGRQKHAKNNSQAKPSACDGLARQPEEVVLQASVSSYHLFRDVAEVTAFRGSLLSWYDQEKRDLPWRRRAEDEMDLDRRAYAVWVSEVMLQQTQVATVINYYTGWMQKWPTLQDLASASLEEVNQLWAGLGYYSRGRRLQEGARKVVEELGGHMPRTAETLQQLLPGVGRYTAGAIASIAFGQATGVVDGNVARVLCRVRAIGADPSSTLVSQQLWGLAQQLVDPARPGDFNQAAMELGATVCTPQRPLCSQCPVESLCRARQRVEQEQLLASGSLSGSPDVEECAPNTGQCHLCLPPSEPWDQTLGVVNFPRKASRKPPREESSATCVLEQPGALGAQILLVQRPNSGLLAGLWEFPSVTWEPSEQLQRKALLQELQRWAGPLPATHLRHLGEVVHTFSHIKLTYQVYGLALEGQTPVTTVPPGARWLTQEEFHTAAVSTAMKKVFRVYQGQQPGTSMGSKRSQVSSPCSRKKPRMGQQVLDNFFRSHISTDAHSLNSAAQ [C477S],-0.00994
7,MRKPRAAVGSGHRKQAASQEGRQKHAKNNSQAKPSACDGLARQPEEVVLQASVSSYHLFRDVAEVTAFRGSLLSWYDQEKRDLPWRRRAEDEMDLDRRAYAVWVSEVMLQQTQVATVINYYTGWMQKWPTLQDLASASLEEVNQLWAGLGYYSRGRRLQEGARKVVEELGGHMPRTAETLQQLLPGVGRYTAGAIASIAFGQATGVVDGNVARVLCRVRAIGADPSSTLVSQQLWGLAQQLVDPARPGDFNQAAMELGATVCTPQRPLCSQCPVESLCRARQRVEQEQLLASGSLSGSPDVEECAPNTGQCHLCLPPSEPWDQTLGVVNFPRKASRKPPREESSATCVLEQPGALGAQILLVQRPNSGLLAGLWEFPSVTWEPSEQLQRKALLQELQRWAGPLPATHLRHLGEVVHTFSHIKLTYQVYGLALEGQTPVTTVPPGARWLTQEEFHTAAVSTAMKKVFRVYQGQQPGTYMGSKRSQVSSPCSRKKPRMGQQVLDNFFRSHISTDAHSLNSAAQ [C477Y],-0.016
8,MRKPRAAVGSGHRKQAASQEGRQKHAKNNSQAKPSACDGLARQPEEVVLQASVSSYHLFRDVAEVTAFRGSLLSWYDQEKRDLPWRRRAEDEMDLDRRAYAVWVSEVMLQQTQVATVINYYTGWMQKWPTLQDLASASLEEVNQLWAGLGYYSRGRRLQEGARKVVEELGGHMPRTAETLQQLLPGVGRYTAGAIASIAFGQATGVVDGNVARVLCRVRAIGADPSSTLVSQQLWGLAQQLVDPARPGDFNQAAMELGATVCTPQRPLCSQCPVESLCRARQRVEQEQLLASGSLSGSPDVEECAPNTGQCHLCLPPSEPWDQTLGVVNFPRKASRKPPREESSATCVLEQPGALGAQILLVQRPNSGLLAGLWEFPSVTWEPSEQLQRKALLQELQRWAGPLPATHLRHLGEVVHTFSHIKLTYQVYGLALEGQTPVTTVPPGARWLTQEEFHTAAVSTAMKKVFRVYQGQQPGTCDGSKRSQVSSPCSRKKPRMGQQVLDNFFRSHISTDAHSLNSAAQ [M478D],-0.0222
9,MRKPRAAVGSGHRKQAASQEGRQKHAKNNSQAKPSACDGLARQPEEVVLQASVSSYHLFRDVAEVTAFRGSLLSWYDQEKRDLPWRRRAEDEMDLDRRAYAVWVSEVMLQQTQVATVINYYTGWMQKWPTLQDLASASLEEVNQLWAGLGYYSRGRRLQEGARKVVEELGGHMPRTAETLQQLLPGVGRYTAGAIASIAFGQATGVVDGNVARVLCRVRAIGADPSSTLVSQQLWGLAQQLVDPARPGDFNQAAMELGATVCTPQRPLCSQCPVESLCRARQRVEQEQLLASGSLSGSPDVEECAPNTGQCHLCLPPSEPWDQTLGVVNFPRKASRKPPREESSATCVLEQPGALGAQILLVQRPNSGLLAGLWEFPSVTWEPSEQLQRKALLQELQRWAGPLPATHLRHLGEVVHTFSHIKLTYQVYGLALEGQTPVTTVPPGARWLTQEEFHTAAVSTAMKKVFRVYQGQQPGTCFGSKRSQVSSPCSRKKPRMGQQVLDNFFRSHISTDAHSLNSAAQ [M478F],0.0278
10,MRKPRAAVGSGHRKQAASQEGRQKHAKNNSQAKPSACDGLARQPEEVVLQASVSSYHLFRDVAEVTAFRGSLLSWYDQEKRDLPWRRRAEDEMDLDRRAYAVWVSEVMLQQTQVATVINYYTGWMQKWPTLQDLASASLEEVNQLWAGLGYYSRGRRLQEGARKVVEELGGHMPRTAETLQQLLPGVGRYTAGAIASIAFGQATGVVDGNVARVLCRVRAIGADPSSTLVSQQLWGLAQQLVDPARPGDFNQAAMELGATVCTPQRPLCSQCPVESLCRARQRVEQEQLLASGSLSGSPDVEECAPNTGQCHLCLPPSEPWDQTLGVVNFPRKASRKPPREESSATCVLEQPGALGAQILLVQRPNSGLLAGLWEFPSVTWEPSEQLQRKALLQELQRWAGPLPATHLRHLGEVVHTFSHIKLTYQVYGLALEGQTPVTTVPPGARWLTQEEFHTAAVSTAMKKVFRVYQGQQPGTCAGSKRSQVSSPCSRKKPRMGQQVLDNFFRSHISTDAHSLNSAAQ [M478A],-0.0431
11,MRKPRAAVGSGHRKQAASQEGRQKHAKNNSQAKPSACDGLARQPEEVVLQASVSSYHLFRDVAEVTAFRGSLLSWYDQEKRDLPWRRRAEDEMDLDRRAYAVWVSEVMLQQTQVATVINYYTGWMQKWPTLQDLASASLEEVNQLWAGLGYYSRGRRLQEGARKVVEELGGHMPRTAETLQQLLPGVGRYTAGAIASIAFGQATGVVDGNVARVLCRVRAIGADPSSTLVSQQLWGLAQQLVDPARPGDFNQAAMELGATVCTPQRPLCSQCPVESLCRARQRVEQEQLLASGSLSGSPDVEECAPNTGQCHLCLPPSEPWDQTLGVVNFPRKASRKPPREESSATCVLEQPGALGAQILLVQRPNSGLLAGLWEFPSVTWEPSEQLQRKALLQELQRWAGPLPATHLRHLGEVVHTFSHIKLTYQVYGLALEGQTPVTTVPPGARWLTQEEFHTAAVSTAMKKVFRVYQGQQPGTCCGSKRSQVSSPCSRKKPRMGQQVLDNFFRSHISTDAHSLNSAAQ [M478C],0.0262
12,MRKPRAAVGSGHRKQAASQEGRQKHAKNNSQAKPSACDGLARQPEEVVLQASVSSYHLFRDVAEVTAFRGSLLSWYDQEKRDLPWRRRAEDEMDLDRRAYAVWVSEVMLQQTQVATVINYYTGWMQKWPTLQDLASASLEEVNQLWAGLGYYSRGRRLQEGARKVVEELGGHMPRTAETLQQLLPGVGRYTAGAIASIAFGQATGVVDGNVARVLCRVRAIGADPSSTLVSQQLWGLAQQLVDPARPGDFNQAAMELGATVCTPQRPLCSQCPVESLCRARQRVEQEQLLASGSLSGSPDVEECAPNTGQCHLCLPPSEPWDQTLGVVNFPRKASRKPPREESSATCVLEQPGALGAQILLVQRPNSGLLAGLWEFPSVTWEPSEQLQRKALLQELQRWAGPLPATHLRHLGEVVHTFSHIKLTYQVYGLALEGQTPVTTVPPGARWLTQEEFHTAAVSTAMKKVFRVYQGQQPGTCEGSKRSQVSSPCSRKKPRMGQQVLDNFFRSHISTDAHSLNSAAQ [M478E],0.0141
